Measurements: US20240158496A1 (Johns Hopkins, published 2024)

What was measured:
[1] = target: T1, recombinant human (rh) CEACAM-1 (human, UniProt P13688 35-428, limits assumed); assay: protein A-agarose pull-down, CEACAM1 immunoblot
T1 construct: Recombinant protein used in the in vitro protein A pull-down
T1 sequence (looked up): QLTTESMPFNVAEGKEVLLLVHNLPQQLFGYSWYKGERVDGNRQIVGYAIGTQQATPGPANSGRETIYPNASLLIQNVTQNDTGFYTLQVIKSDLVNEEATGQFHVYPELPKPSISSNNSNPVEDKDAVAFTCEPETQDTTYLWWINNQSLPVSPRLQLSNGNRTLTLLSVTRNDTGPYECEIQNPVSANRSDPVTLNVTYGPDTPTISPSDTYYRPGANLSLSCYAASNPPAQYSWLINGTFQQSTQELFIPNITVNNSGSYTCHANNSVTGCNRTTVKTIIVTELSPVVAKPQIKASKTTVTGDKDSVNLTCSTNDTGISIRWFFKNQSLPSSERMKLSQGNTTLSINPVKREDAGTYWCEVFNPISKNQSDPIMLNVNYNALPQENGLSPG
Description: The precipitated complexes were washed with immunoprecipitation buffer, re-suspended in NuPAGE sample buffer with reducing agent, boiled, resolved on a Bis-Tris Criterion XT Gel system and transferred to a PVDF membrane. Membranes were immunoblotted with primary antibodies [CEACAM1 (D1P4T); TIM3 (D5D5R™)] overnight, washed, incubated with secondary antibodies and visualized by Amersham ECL Western Blotting Detection Reagents. […] This assay is also used to evaluate the binding of any antibody-ligand trap comprising a ligand-binding sequence of a ligand-binding sequence of TIM-3 ectodomain(TIM-3ecd) to rh CEACAM-1.

[2] = target: T2, CEACAM-1 on co-stimulated human T cells (human, UniProt P13688 35-526); assay: protein A-agarose immunoprecipitation of lysates of co-stimulated human PBMC treated for 6 d, CEACAM1 immunoblot
T2 construct: whole, on cells; Endogenous protein
T2 sequence (looked up): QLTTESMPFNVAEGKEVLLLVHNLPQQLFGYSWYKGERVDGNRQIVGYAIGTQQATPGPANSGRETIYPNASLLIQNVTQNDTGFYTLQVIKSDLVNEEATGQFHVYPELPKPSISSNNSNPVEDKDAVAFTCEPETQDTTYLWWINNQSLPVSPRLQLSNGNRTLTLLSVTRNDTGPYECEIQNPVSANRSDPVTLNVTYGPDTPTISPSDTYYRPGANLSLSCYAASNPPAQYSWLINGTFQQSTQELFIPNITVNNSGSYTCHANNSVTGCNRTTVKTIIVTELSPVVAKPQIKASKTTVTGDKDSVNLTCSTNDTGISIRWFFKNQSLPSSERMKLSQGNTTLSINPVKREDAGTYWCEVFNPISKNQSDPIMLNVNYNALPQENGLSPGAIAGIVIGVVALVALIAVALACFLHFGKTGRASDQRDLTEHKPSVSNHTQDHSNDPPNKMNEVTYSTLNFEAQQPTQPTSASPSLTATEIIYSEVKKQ
Description: The precipitated complexes were washed with immunoprecipitation buffer, re-suspended in NuPAGE sample buffer with reducing agent, boiled, resolved on a Bis-Tris Criterion XT Gel system and transferred to a PVDF membrane. Membranes were immunoblotted with primary antibodies [CEACAM1 (D1P4T); TIM3 (D5D5R™)] overnight, washed, incubated with secondary antibodies and visualized by Amersham ECL Western Blotting Detection Reagents.

binding result [2]: no binding
B1: α-PD1 mAb (nivolumab) (antibody)
heavy: not shown
light: not shown
notes: Parent antibody used as a control; also called α-PD1 antibody (nivolumab); a-PD1 mAb (nivolumab)
binding result [1]: no binding (tested: 10 µg antibody with 5 µg rhCEACAM-1)
